Assays:
[1] = target: S. cerevisiae ribosomes with L10 R7P (S. cerevisiae) (UniProt P41805)
[2] = target: S. cerevisiae ribosomes with L10 Y11C (S. cerevisiae) (UniProt P41805)
[3] = target: S. cerevisiae ribosomes with L10 Y9C (S. cerevisiae) (UniProt P41805)
[4] = target: S. cerevisiae ribosomes with L10 R7Q (S. cerevisiae) (UniProt P41805)
[5] = target: wild-type S. cerevisiae ribosomes (wild-type L10) (S. cerevisiae) (UniProt P41805)
[6] = target: S. cerevisiae ribosomes with L10 R7L (S. cerevisiae) (UniProt P41805)
[7] = target: S. cerevisiae ribosomes with L10 Y9N (S. cerevisiae) (UniProt P41805)

“eEF2 (eukaryotic elongation factor 2) (from UniProt P32324 1-842) (natural protein)” was tested, and the Kd [1] was 6.6 nM, the Kd [2] was 16.6 nM and the Kd [3] was 5.2 nM. It also gave a Kd [4] of 6.1 nM, a Kd [5] of 10.8 nM and a Kd [6] of 10.7 nM. The Kd [7] was 9.7 nM.
